Data taken from patent US20050215478A1, “Amino acid sequences capable of facilitating penetration across a biological barrier” (priority 2002, published 2005).
Values joined by “and” are separate entries in the source; they are usually repeats but may differ in a detail not shown here. Equal entries are not always repeated.

Experiments:
[1] = Relative potency of penetrating peptides as tested in mice (Example 3); assay type: in vivo; conditions: IBW-002 = 100
Text: Relative Potency of Penetrating Peptides as Tested in Mice.

[2] = Translocation of ^125I-labeled peptide from mouse intestine loop into blood and organs (Example 1); assay type: in vivo, BALB/c mice; conditions: for recovered cpm/mouse / blood 15′, total cpm in the blood / blood 30′, total cpm in the blood / blood 60′, total cpm in the blood / blood/injected cpm (%), 15′ / blood/injected cpm (%), 30′ / blood/injected cpm (%), 60′ / recovered/injected cpm (%) / Epididymal fat, cpm recovered / brain, cpm recovered / kidney, cpm recovered / liver, cpm recovered / lungs, cpm recovered: Table 2 formulation (PE 6,200), intestinal loop, 224,160 cpm injected per mouse; for recovered cpm/mouse: blood 60′ plus organs; for blood 15′, total cpm in the blood / blood 30′, total cpm in the blood / blood 60′, total cpm in the blood: calculated from 50 μl sample assuming 2 ml blood; for Epididymal fat, cpm recovered / brain, cpm recovered / kidney, cpm recovered / liver, cpm recovered / lungs, cpm recovered: organ removed after 60 min
Text: The tested peptide, representing a penetrating peptide and a radio-labeled probe in a contiguous construct of SEQ ID NO 3 and SEQ ID NO 17, hereby named IBW 002 (Novetide, lot 40139-45, sequence: Ac-NYYDITLALAGICQSARLVQQLAGGGKGGK-NH2 (SEQ ID NO:22), was ^125I-labeled using the Bolton Hunter Reagent (Biochem. J. 133:529-39 (1973)). The labeled peptide was loaded on a Sephadex G10 column, washed with phosphate buffer and eluted with 3M Tiocyanate in DDW+50% n-butanol. The peak, containing 6 fractions, was kept and used for in vivo experiments.
Four male BALB/c mice, 9-10 weeks old, were deprived of food, 18 hours prior to the experiment.
The mice were anesthetized by i.p. injection of 0.05 ml of a mixture of 0.15 ml xylazine+0.85 ml of ketamin. A 2 cm long incision was made along the center of the abdomen, through the skin and abdominal wall. An intestine loop was gently pulled out through the incision and placed on wet gauze beside the animal. The loop remained intact through the entire procedure and was kept wet during the whole time. The tested compound was injected into the loop, 0.2 ml/ mouse, containing around 200,000 cpm, using a 26G needle. Fifteen minutes post injection the tip of the tail was cut and a 50 μl blood sample was drawn into a glass capillary. This was repeated 30 and 60 minutes post injection. The animals were subsequently sacrificed. The following organs were removed: epididymal fat, kidneys, liver, lungs and brain. Radioactivity in each organ and in blood samples was counted. A 5 μl sample of the injected solution was counted to determine the total injected cpm per mouse.
The total radioactive labeling injected per mouse was 224,160 cpm. Total cpm in the blood was calculated based on the 50 μl blood sample drawn out at different time points post injection, in the assumption that total blood volume of each mouse is 2 ml.

[3] = individual mice, listed as 125I-IBW-002

Ac-NYYDITLALAGICQSARLVQQLAGGGKGGK-NH2 (Ac-NYYDITLALAGICQSARLVQQLAGGGKGGK-NH2; also: 125I label) [IBW-002, ^125I-labeled using the Bolton Hunter Reagent for in vivo tests]
Relative potency (%) [1]: 100%
recovered cpm/mouse [2, 3]: 41,440 cpm and 66,525 cpm and 61,642 cpm and 82,325 cpm
recovered cpm/mouse ([2]; mean of 4 mice): 62,983 cpm
blood 15′, total cpm in the blood [2, 3]: 37,080 cpm and 68,960 cpm and 62,280 cpm and 80,280 cpm
blood 30′, total cpm in the blood [2, 3]: 36,120 cpm and 60,680 cpm and 52,320 cpm and 70,840 cpm
blood 60′, total cpm in the blood [2, 3]: 29,720 cpm and 47,800 cpm and 44,000 cpm and 59,720 cpm
blood 15′, total cpm in the blood ([2]; mean of 4 mice): 62,150 cpm
blood 30′, total cpm in the blood ([2]; mean of 4 mice): 54,990 cpm
blood 60′, total cpm in the blood ([2]; mean of 4 mice): 45,310 cpm
blood/injected cpm (%), 15′ [2, 3]: 16.54% and 30.76% and 27.78% and 35.81%
blood/injected cpm (%), 30′ [2, 3]: 16.11% and 27.07% and 23.34% and 31.60%
blood/injected cpm (%), 60′ [2, 3]: 13.26% and 21.32% and 19.63% and 26.64%
recovered/injected cpm (%) [2, 3]: 18.49% and 29.68% and 27.50% and 36.73%
blood/injected cpm (%), 15′ ([2]; mean of 4 mice): 27.73%
blood/injected cpm (%), 30′ ([2]; mean of 4 mice): 24.53%
blood/injected cpm (%), 60′ ([2]; mean of 4 mice): 20.21%
recovered/injected cpm (%) ([2]; mean of 4 mice): 28.10%
Epididymal fat, cpm recovered [2, 3]: 547 cpm and 869 cpm and 973 cpm and 1,174 cpm
brain, cpm recovered [2, 3]: 138 cpm and 190 cpm and 202 cpm and 301 cpm
kidney, cpm recovered [2, 3]: 4,068 cpm and 6,614 cpm and 6,400 cpm and 7,650 cpm
liver, cpm recovered [2, 3]: 6,102 cpm and 9,709 cpm and 8,718 cpm and 11,674 cpm
lungs, cpm recovered [2, 3]: 865 cpm and 1,343 cpm and 1,349 cpm and 1,806 cpm
Epididymal fat, cpm recovered ([2]; mean of 4 mice): 891 cpm
brain, cpm recovered ([2]; mean of 4 mice): 208 cpm
kidney, cpm recovered ([2]; mean of 4 mice): 6,183 cpm
liver, cpm recovered ([2]; mean of 4 mice): 9,051 cpm
lungs, cpm recovered ([2]; mean of 4 mice): 1,341 cpm
time at which the relative amount in the blood peaked ([2]; post-intestinal administration, blood sampled at 15, 30 and 60 min, Table 2 formulation): 15 min
